Test results: US20090081724A1

How the values were obtained:
[1] = target: AD-CaM (Calmodulin, encoded by the CALM2 gene, fused to the activation domain) (human) (UniProt P0DP24); experiment: cell-based or functional assay
[2] = target: AD-CaM (Calmodulin, encoded by the CALM2 gene, fused to the activation domain) (human) (UniProt P0DP24); experiment: yeast two-hybrid, CPRG β-gal assay, against DB-Q2C wt

Sequence of DB-KCNQ2 wild-type (wt) C-term BAIT (O43526 other isoform, or with tags, fused parts or gaps limits assumed): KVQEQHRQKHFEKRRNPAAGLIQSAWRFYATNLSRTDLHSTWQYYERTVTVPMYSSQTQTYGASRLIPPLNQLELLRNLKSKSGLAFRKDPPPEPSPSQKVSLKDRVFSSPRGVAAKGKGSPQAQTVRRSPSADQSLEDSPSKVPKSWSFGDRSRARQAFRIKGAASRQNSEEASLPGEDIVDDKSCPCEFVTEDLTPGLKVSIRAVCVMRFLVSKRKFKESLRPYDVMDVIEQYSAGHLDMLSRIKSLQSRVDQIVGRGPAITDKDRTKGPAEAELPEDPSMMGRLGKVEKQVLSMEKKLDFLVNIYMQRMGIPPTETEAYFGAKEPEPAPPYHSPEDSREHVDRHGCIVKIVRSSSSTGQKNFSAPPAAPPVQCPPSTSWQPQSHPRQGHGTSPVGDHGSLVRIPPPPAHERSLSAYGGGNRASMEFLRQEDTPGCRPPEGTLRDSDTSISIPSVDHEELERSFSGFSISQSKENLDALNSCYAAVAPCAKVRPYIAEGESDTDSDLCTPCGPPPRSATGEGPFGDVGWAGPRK

Substance: DB-KCNQ2 wild-type (wt) C-term BAIT (from UniProt O43526 319-872)
- units of β-gal activity (CPRG assay, liquid culture) (units β-gal activity) [1]: 0.05

Substance: DB-Q2C L619R mutant (from UniProt O43526 319-872)
- units of β-gal activity (CPRG assay, liquid culture) (units β-gal activity) [1]: 0.26
- fold increase in CaM binding affinity against wt [2]: 5 fold
